Read-outs that look alike come from different tables or passages of the source.
B1: MAb2: murine monoclonal anti-LAMP1 antibody, VH SEQ ID NO: 8, VL SEQ ID NO: 12 (antibody, V domains shown)
VH: QVQLQQSAAELARPGASVKMSCKASGYTFTSYTMHWVKQRPGQGLEWIGYFNPSSGYPEYNQKFKDKTTLTADKSSNTAFIQLNSLTSEDSAVYYCSRGYYYGSRGYALDFWGQGASVTVSS
VL: NIVLTQSPVSLAVSLGQRATISCRASESVDINGNTFMHWYQQKPGQSPKLVIYAASNIESGVPARFSGSGSSTDFTFTIDPVEADDVATYYCQQNIEDPWTFGGGTKVEIK
modifications: antibod fragment; antibody fragment
B2: MAb1: murine monoclonal anti-LAMP1 antibody, VH SEQ ID NO: 1, VL SEQ ID NO: 5 (antibody, V domains shown)
VH: QVQLQQSGAELVKPGASVKMSCKASGYIFTNYNIHWVKKSPGQGLEWIGAIYPGNGDAPYSQKFKDKATLTADKSSSTTYMQLSRLTSEDSAVYYCVRANWDVAFAYWGQGTLVSVSA
VL: DIQMTQSPPSLSASLGGKVTITCKASQDIDRYMAWYQDKPGKGPRLLIHDTSTLQPGIPSRFSGSGSGRDYSFSISNLEPEDIATYYCLQYDNLWTFGGGTKLEIK
modifications: Antibody Fragment; antibody fragment

Legend:
mLAMP1_ΔGYQTI = molecular target: T1, mLAMP1_ΔGYQTI (Mus musculus, UniProt P11438); assay: Binding onto membrane-anchored murine LAMP1 (293-F cells) by flow cytometry; details: pXL6009 mLAMP1_ΔGYQTI
T1 construct: expressed in transfected cells; host or cells: 293-F (HEK293-derived), transient transfection, plasmid pXL6009
T1 sequence (P11438 with tags, fused parts or gaps limits assumed): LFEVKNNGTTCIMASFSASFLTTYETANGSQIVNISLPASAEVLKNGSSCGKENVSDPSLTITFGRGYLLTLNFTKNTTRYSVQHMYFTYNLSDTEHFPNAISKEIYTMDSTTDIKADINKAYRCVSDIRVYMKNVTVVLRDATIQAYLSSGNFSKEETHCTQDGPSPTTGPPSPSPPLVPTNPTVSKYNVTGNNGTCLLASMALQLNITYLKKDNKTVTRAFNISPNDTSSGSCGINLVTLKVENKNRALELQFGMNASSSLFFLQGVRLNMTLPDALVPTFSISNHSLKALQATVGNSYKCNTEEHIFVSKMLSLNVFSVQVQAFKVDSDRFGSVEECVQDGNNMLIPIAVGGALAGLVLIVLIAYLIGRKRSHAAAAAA
Excerpt: Different LAMP1 proteins were expressed at the cell membrane of HEK293 cells after transient expression from mammalian plasmids encoding the entire coding sequence of LAMP1 deleted of the intracellular lysosome-targeting motif GYQTI and substituted by a 5-Ala repeat sequence. Mammalian plasmids had similar expression signals as plasmids used to produce recombinant LAMP1 described in example 6.2. Table 14 below lists all the plasmids that were designed in order to confirm the results obtained with soluble LAMP1 protein by ELISA in example 6.3 and further characterize the binding domains of the anti-LAMP1 mAbs.
Each expression plasmid described in example 6.4 was complexed with 293Fectin™ in suspension-cultivated 293-F cells as using the protocol outlined in example 6.2. Two days post transfection cells were processed, analyzed by flow cytometry (Guava® easyCyte™ 8HT) as mentioned in example 4.7, and the mean fluorescence was recorded. This fluorescence represents a semi-quantitative assessment of binding.

[1] = molecular target: T2, LAMP1 expressed on the surface of advanced human primary colon tumor CR-IGR-034P (Homo sapiens, UniProt P11279); assay: Apparent affinity to human primary colon tumor PDX by flow cytometry; format: binding; details: dissociated PDX tumor cells, 45 min at 4° C., read-out: EC50 obtained with CR-IGR-034P
T2 construct: endogenous in cells; host or cells: enzymatically dissociated patient-derived xenograft tumour cells (e.g. CR-IGR-034P, LUN-NIC-014P, BRE-IGR-0159) and tumour cell lines
T2 sequence (P11279 29-417): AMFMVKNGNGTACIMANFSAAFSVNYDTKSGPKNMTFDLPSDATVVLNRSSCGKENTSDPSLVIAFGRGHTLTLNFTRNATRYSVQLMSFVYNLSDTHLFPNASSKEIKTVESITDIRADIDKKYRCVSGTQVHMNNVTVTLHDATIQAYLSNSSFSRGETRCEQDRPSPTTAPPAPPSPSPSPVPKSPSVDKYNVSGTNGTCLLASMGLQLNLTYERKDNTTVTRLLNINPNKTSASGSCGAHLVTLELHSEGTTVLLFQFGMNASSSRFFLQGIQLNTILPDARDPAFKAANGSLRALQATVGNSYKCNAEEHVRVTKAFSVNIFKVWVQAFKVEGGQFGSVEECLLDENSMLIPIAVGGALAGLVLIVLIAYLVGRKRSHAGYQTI
Description: Advanced human primary colon tumor CR-IGR-034P was obtained from Patient-derived xenograft in mice. Tumor CR-IGR-034P was enzymatically dissociated using collagenase Type IV (Invitrogen; #17104-019) and deoxyribonuclease I (Invitrogen; #18047-019) for 1 h at 4° C. Cell viability was estimated by Viacount application using Guava® easyCyte™ 8HT Flow Cytometry System. […] 100 μL/well of goat anti-mouse IgG conjugated with Alexa647 (Invitrogen; #A2135) or goat anti-human IgG conjugated with Alexa488 (Invitrogen; #A11013) was added for 45 min at 4° C. and washed three times with PBS 1% BSA. The antibody binding was evaluated after centrifugation and resuspension of cells by adding 200 μl/well PBS 1% BSA and read using Guava® easyCyte™ 8HT Flow Cytometry System. EC50 values were estimated using BIOST@T-SPEED software. EC50 values obtained with the advanced human primary colon tumor CR-IGR-034P are listet in Table 3.

[2] = tested on: hybrid between murine and human LAMP1 domains; assay: Epitope ELISA on human/mouse hybrid LAMP1 extracellular domains; format: binding
Excerpt: The high level of glycosylation of the antigen required a specific approach to determine the binding site of the anti-LAMP1 mAbs on LAMP1. […] This absence of binding was used to design several chimeric LAMP1 proteins in which one or several of the LAMP1 domains (Loop1-Loop4) in the human construct were replaced by the murine counterpart. The absence of binding once the binding site of the antibody was replaced by the murine counterpart allowed for identification of the antibody binding side.

[3] = read-out: EC50 (nM) Loop1-2: hLAMP1 Loop3-4: mLAMP1
[4] = read-out: EC50 (nM) Loop1-3: hLAMP1 Loop4: mLAMP1

Row | Molecule | Binding call (mLAMP1_ΔGYQTI; Table 17 Experiment no1) | Mean fluorescence (mLAMP1_ΔGYQTI; Table 17 Experiment no1) | Binding call (mLAMP1_ΔGYQTI; Table 18) | Mean fluorescence (mLAMP1_ΔGYQTI; Table 18) | EC50 [1] | EC50 (nM) Loop1-2: mLAMP1 Loop3-4: hLAMP1 [2] | EC50 (nM) Loop1: mLAMP1 Loop2-4: hLAMP1 [2] | EC50 [2, 3] | EC50 [2, 4] | Binding call (mLAMP1_ΔGYQTI; Table 17 Experiment no2) | Mean fluorescence (mLAMP1_ΔGYQTI; Table 17 Experiment no2) | EC50 ([2]; read-out: EC50 (nM) Loop1: mLAMP1 Loop2-4: hLAMP1)
1 | B1 | No binding | 21 | No binding | 27 | 14000 pM | No binding | No binding | 0.25 nM | 0.25 nM |  |  | 
2 | B2 | No binding | 4 |  | 13 | 5000 pM | No binding |  | 0.18 nM | 0.16 nM | No binding | 2 | 0.15 nM

From US9809653B2, “Anti-LAMP1 antibodies and antibody drug conjugates, and uses thereof” (SANOFI, priority 2012, dated 2017)
